From JP2023014062A (dated 2023)

Key:
[1] = biological target: T1, B.1.1.7変異株(アルファ株又は英国株)のSタンパク質のRBDタンパク質 (SARS-CoV-2 B.1.1.7変異株, UniProt P0DTC2 322-536); experiment: ELISA, RBD coated at 2 μg/ml, Expi293 culture supernatant, HRP anti-human IgG
T1 construct: range 322-536

[2] = biological target: T2, B.1.351変異株(ベータ株又は南ア株)のSタンパク質のRBDタンパク質 (SARS-CoV-2 B.1.351変異株, UniProt P0DTC2 322-536); experiment: as above
T2 construct: range 322-536

B1: 抗体NCV2SG53 (antibody, V domains shown)
VH: QVQMVESGGGLVRPGGSLRLSCAASGFTFSDYYMSWIRQAPGKGLEWISYISSSGSSMNYADSVKGRFTISRDNAKNSLFLQMNSLRAEDTAVYYCAREFDLTKIIMVPPYWGQGTLVTVSS
VL: AIQLTQSPSSLSASVGDRVTITCRASQGISSYLAWYQQKPGKAPKVLIYAASTLQSGVPSRFSGSGSGTDFTLTISSLQPEDFATYYCQQLKSYPLTFGGGTKVEIT
B1: binds [1]; binds [2].
